# Results published in US20220127354A1 (Amgen, published 2022).
# T1: caCDH19(1-43)::FLAG::caCDH19(44-87)::rhCDH19(89-114)::caCDH19(115-770) (construct T, rh EC1b) (rhesus macaque/dog chimera)
# T1 construct: leader left out
# T1 chain: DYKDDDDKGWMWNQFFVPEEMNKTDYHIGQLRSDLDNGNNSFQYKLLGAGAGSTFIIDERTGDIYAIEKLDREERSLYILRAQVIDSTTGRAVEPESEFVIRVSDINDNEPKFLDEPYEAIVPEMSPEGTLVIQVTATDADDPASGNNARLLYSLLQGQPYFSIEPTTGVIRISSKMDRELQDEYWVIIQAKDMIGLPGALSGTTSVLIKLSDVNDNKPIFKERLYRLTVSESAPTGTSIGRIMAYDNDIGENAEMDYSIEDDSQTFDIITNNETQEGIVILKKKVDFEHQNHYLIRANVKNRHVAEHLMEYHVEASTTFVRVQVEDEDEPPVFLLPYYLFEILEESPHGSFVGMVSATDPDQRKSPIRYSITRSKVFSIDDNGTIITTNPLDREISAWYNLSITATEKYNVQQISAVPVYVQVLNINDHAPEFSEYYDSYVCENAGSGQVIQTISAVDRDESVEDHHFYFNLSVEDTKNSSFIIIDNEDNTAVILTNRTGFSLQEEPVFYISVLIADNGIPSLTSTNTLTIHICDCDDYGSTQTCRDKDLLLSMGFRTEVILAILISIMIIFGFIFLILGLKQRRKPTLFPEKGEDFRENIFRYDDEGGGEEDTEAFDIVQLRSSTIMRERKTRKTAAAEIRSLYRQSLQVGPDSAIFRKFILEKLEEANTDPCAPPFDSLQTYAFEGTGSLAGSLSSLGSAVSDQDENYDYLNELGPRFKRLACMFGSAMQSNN
# T2: caCDH19(1-42)::FLAG::caCDH19(43-770) (construct Q, Ca EC1-5) (dog)
# T2 construct: also called caCDH19(44-770); dog Cadherin19
# T2 chain: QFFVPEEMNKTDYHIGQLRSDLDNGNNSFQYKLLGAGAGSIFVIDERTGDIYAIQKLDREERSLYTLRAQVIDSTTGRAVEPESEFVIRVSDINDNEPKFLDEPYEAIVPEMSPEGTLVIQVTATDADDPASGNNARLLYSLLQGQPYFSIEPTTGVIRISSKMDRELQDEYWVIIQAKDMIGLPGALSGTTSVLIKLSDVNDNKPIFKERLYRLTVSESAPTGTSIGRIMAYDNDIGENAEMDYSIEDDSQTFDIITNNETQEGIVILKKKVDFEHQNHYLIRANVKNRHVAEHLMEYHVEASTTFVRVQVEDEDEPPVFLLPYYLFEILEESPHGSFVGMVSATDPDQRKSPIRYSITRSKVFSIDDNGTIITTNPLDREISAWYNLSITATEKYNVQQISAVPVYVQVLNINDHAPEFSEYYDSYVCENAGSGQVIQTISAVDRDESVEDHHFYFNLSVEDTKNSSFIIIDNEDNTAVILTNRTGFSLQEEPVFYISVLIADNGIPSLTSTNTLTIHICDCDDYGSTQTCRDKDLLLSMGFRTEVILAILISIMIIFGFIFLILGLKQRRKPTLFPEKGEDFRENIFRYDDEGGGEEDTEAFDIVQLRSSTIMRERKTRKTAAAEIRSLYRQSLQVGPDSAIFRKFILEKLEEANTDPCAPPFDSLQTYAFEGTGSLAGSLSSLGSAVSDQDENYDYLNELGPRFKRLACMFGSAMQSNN
# T3: muCDH19(44-323)::raCDH19(324-327)::muCDH19(328-770) with leader and FLAG (construct X) (rat/mouse chimera)
# T3 construct: leader (1-43 of the entry) left out
# T3 chain: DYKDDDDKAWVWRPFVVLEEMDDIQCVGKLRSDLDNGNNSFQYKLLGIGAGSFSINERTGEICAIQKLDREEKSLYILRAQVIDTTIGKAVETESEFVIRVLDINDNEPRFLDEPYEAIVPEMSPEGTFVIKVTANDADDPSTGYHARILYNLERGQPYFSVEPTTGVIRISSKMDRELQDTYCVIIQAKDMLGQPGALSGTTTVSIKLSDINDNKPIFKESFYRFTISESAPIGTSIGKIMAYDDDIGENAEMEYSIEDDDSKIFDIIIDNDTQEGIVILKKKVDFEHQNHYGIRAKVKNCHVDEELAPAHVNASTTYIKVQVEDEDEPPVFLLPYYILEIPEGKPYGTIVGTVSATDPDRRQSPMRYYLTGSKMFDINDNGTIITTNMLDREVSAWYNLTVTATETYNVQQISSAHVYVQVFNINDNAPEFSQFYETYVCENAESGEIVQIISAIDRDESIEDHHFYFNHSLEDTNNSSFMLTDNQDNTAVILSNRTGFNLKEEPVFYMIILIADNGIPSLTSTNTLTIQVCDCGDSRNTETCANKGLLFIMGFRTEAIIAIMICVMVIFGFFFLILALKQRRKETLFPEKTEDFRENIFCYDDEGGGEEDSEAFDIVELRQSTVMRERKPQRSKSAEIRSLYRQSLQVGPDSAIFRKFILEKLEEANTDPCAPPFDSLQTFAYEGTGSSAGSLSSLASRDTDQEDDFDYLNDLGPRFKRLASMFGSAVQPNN
# Tests used:
# [1] = target: T1, caCDH19(1-43)::FLAG::caCDH19(44-87)::rhC …; assay: flow cytometry, transfected 293T cells, 2 mM CaCl2
# Protocol: (§1) The following binding assay was completed in presence of 2 mM CaCl₂). […] Cells were then washed one time and the amount of cell associated Alexa647-labelled Ab was quantitated by flow cytometry. The experiments included mock transfected controls.
# [2] = target: T2, caCDH19(1-42)::FLAG::caCDH19(43-770) …; assay: flow cytometry, transfected 293T cells, 2 mM CaCl2
# Protocol: as §1
# [3] = target: T4, rhCDH19(1-43)::FLAG::rhCDH19(44-141)::caCDH19(141-770) (construct R, rh EC1) (rhesus macaque/dog chimera); assay: flow cytometry, transfected 293T cells, 2 mM CaCl2;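 note: antibody binding read out as cell-bound Alexa647 label signal, with mock-transfected cells as controls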
# T4 construct: leader (1-43 of the entry) left out
# Protocol: as §1
# [4] = target: T5, rhCDH19(1-43)::FLAG::rhCDH19(44-65)::caCDH19(65-770) (construct S, rh EC1a) (rhesus macaque/dog chimera); assay: flow cytometry, transfected 293T cells, 2 mM CaCl2;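 note: antibody binding read out as cell-bound Alexa647 label signal, with mock-transfected cells as controls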
# T5 construct: leader (1-43 of the entry) left out
# Protocol: as §1
# [5] = target: T6, muCDH19(44-139)::huCDH19(142-364)::muCDH19(363-770) with Flag tag (construct E, Hu EC2-3) (human/mouse chimera); assay: flow cytometry, transfected 293T cells
# T6 construct: leader left out; the entry starts at residue 44; also called C137847
# Description: (§2) The experiment included assaying the anti-CDH19 antibodies against mouse Cadherin19 to determine suitability for binning on these human/mouse chimeras.
# [6] = target: T7, muCDH19(44-247)::huCDH19(250-364)::muCDH19(363-770) with Flag tag (construct F, Hu EC3) (human/mouse chimera); assay: flow cytometry, transfected 293T cells
# T7 construct: leader left out; the entry starts at residue 44; also called C137911
# Description: as §2
# [7] = target: T3, muCDH19(44-323)::raCDH19(324-327)::muCDH …; assay: flow cytometry, transfected 293T cells, 2 mM CaCl2
# Protocol: as §1
binder,measurement,setting,value
"hu anti-<huCDH19> 26D1.1 (Ab ID 13882) (antibody, human IgG1, lambda, V domains shown, huIgG1z / huLLC-C2; Bin 2) VH: QVQLVQSGAEVKKPGASVKVSCKASRYTFTSYYMSWVRQAPGQGLEWMGIIHPSGGDTTYAQKFQGRVTMTGDTSTSTVYMELSSLRSEDTAVYYCARGGIKLWLHFDYWGQGTLVTVSS VL: not shown",binding result,[1],binds
same,binding result,[2],no binding (tested: 5 ug/ml)
same,binding result,[3],binds
same,binding result,[4],binds
"anti-CDH19 antibody 2G6 (Ab ID 13588) (antibody, human IgG1, lambda, V domains shown, Bin 4) VH: QVQLVESGGGVVQPGRSLRLSCAASGFTFSSYGMHWVRQAPGKGLEWVAFIWYDGSNKYYADSVKDRFTISRDNSKNTLYLQMKSLRAEDTAVYYCARRAGIIGTIGYYYGMDVWGQGTTVTVSS VL: SYELTQPPSVSVSPGQTASITCSGDRLGEKYTCWYQQRPGQSPLLVIYQDTKRPSGIPERFSGSNSGNTATLTISGTQAMDEADYYCQAWDSSTVVFGGGTKLTVLG",binding result,[5],binds
same,binding result,[6],binds
same,binding result,[7],binds
"hu anti-<huCDH19> 4A9 (Ab ID 13589) (antibody, human IgG1, lambda, V domains shown, huIgG1z / huLLC-C1; Bin 1) VH: QVQLQESGPGLVKPSETLSLTCTVSGGSISGYYWSWIRQPPGKGLEWFAYFSYSGSTNYNPSLKSRVTLSVDTSKNQFSLKLSSVTAADTAVYYCARNWAFHFDFWGQGTLVTVSS VL: QSVLTQPPSVSGAPGQRVTISCTGSSSNIGTGYAVHWYQQFPGTAPKLLIYGNNNRPSGVPDRFSGSKSGTSASLAITGLQAEDEADYYCQSYDSRLSGWVFGGGTKLTVLG",binding result,[1],no binding (tested: 5 ug/ml)
same,binding result,[2],no binding (tested: 5 ug/ml)
same,binding result,[3],binds
same,binding result,[4],no binding (tested: 5 ug/ml)
"hu anti-<huCDH19> 4B10 (Ab ID 13590) (antibody, V domains shown, huIgG1z / huKLC; Bin 4) VH: QVQLVESGGGVVQPGRSLRLSCAASGFTFSSYDMHWVRQAPGKGLEWVAVISYDGTNEYYADSVKGRFTISRDTSKNTLYLQMNSLRAEDTAVYYCARERYFDWSFDYWGQGTLVSVSS VL: EIVLTQSPGTLSLSPGERATLSCRASQSVSNTYLAWYHQRPGQAPRLLIYGASSRATGIPDRFSGSGSGTDFALTISSLEPEDFAVYYCQQYSNSWTFGQGTKVEIKR",binding result,[5],binds
same,binding result,[6],binds
same,binding result,[7],binds
